Results on six molecules are retold here after US20050142106A1 (MIT, published 2005).

Assay [1] deals with T1, IL-15Rα on F15R-Kit cells (UniProt Q13261 31-267).
T1 construct: whole, on cells
In words: flow cytometry on F15R-Kit cells.

For assay [2], the target named is T2, IL-2Rα on the surface of KIT225 or F15R-Kit cells (human, UniProt P01589 22-272).
T2 construct: whole, on cells; KIT225 cells also carry some IL-2Rβ and IL-2Rγ; also called IL-2 receptor α subunit; p55
T2 sequence (looked up): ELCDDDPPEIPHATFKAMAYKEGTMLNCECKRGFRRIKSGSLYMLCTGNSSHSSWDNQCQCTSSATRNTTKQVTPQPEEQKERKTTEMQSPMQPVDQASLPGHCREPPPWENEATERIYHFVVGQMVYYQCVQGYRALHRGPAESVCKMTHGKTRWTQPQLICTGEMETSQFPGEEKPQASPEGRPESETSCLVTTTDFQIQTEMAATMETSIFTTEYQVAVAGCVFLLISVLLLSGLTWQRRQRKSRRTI
Nature of the assay: flow cytometry on KIT225 cells, 37 C, anti-FLAG detection. The text has this: Cells were washed with ice-cold PBS, pH 7.4, containing 0.1% bovine serum albumin (BSA) and labeled with a biotinylated antibody against the FLAG epitope followed by streptavidin-phycoerythrin on ice. We washed the cells again and determined mean single cell fluorescence using an EPICS-XL flow cytometer.

Assay [3] addresses T2, IL-2Rα on the surface of KIT225 or …. Nature of the assay: flow cytometry on F15R-Kit cells, 30 min at 37 C, pH 7.4. As to the method: (pH 7.4). Cell surface bound protein was measured using flow cytometry. Data from two different experiments (FIG. 12) were used to estimate Kd values.
A further assay deals with T3, IL-2Rβ on YT-2C2 cells (human, UniProt P14784 27-551).
T3 construct: whole, on cells; YT-2C2 cells express about 20,000 IL-2Rβγ, so IL-2Rγ is also present; also called p75
T3 sequence (looked up): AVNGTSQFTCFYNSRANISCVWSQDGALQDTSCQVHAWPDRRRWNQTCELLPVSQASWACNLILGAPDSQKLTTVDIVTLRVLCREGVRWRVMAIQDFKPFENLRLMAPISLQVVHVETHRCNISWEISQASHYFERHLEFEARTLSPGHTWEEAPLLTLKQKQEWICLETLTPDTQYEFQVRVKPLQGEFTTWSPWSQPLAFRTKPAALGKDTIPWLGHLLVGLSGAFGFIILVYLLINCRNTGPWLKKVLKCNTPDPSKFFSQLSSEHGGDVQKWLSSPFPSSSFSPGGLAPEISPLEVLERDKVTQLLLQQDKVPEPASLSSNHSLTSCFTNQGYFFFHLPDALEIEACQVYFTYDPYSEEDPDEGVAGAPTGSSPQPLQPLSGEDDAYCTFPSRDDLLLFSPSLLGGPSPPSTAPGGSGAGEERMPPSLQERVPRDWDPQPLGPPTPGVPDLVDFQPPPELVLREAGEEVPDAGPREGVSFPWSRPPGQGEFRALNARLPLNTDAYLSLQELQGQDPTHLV
Nature of the assay: flow cytometry on YT-2C2 cells, on ice, anti-FLAG detection, global fit.

Assay [4] has as its target T2, IL-2Rα on the surface of KIT225 or …. Nature of the assay: flow cytometry on KIT225 cells, 37 C; the reference value is cited from the literature.

Residue numbers refer to the chain shown, from its start. Names may count otherwise. A value given as a limit tells only on which side of the number the result lay.

T1 sequence (Q13261 31-267, stated change not applied): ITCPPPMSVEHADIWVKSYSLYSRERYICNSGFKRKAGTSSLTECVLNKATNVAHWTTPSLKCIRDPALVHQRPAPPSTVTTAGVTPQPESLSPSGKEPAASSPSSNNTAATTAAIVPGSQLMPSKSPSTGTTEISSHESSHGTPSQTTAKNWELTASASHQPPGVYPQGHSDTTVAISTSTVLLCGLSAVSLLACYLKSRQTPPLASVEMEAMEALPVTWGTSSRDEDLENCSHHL

B1: IL-2 mutant M6 (V69A, Q74P, I128T) (ligand, not shown: small tags and cut ends)
chain: APTSSSTKKTQLQLEHLLLDLQMILNGINNYKNPKLTRMLTFKFYMPKKATELKHLQCLEEELKPLEEALNLAPSKNFHLRPRDLISNINVIVLELKGSETTFMCEYADETATIVEFLNRWITFSQSTISTLT
notes: Soluble form secreted from yeast
Consider B1, for which, in assay [1], the binding result was “no binding”. Further, the values for the Kd (in assay [2]; in assay [3]; in the assay with IL-2Rβ on YT-2C2 cells) were around 1000 pM, 1220 pM and 210000 pM, respectively. Moreover, the “fold improvement in binding affinity relative to a wild-type Kd value of 28 nM (literature)” value in assay [4] is at least 30 fold.

B2: IL-2 mutant 2-4 (ligand, not shown: small tags and cut ends)
chain: B1 chain with N29S, Y31H, K35R, T37A, K48E, N71R, N88D, I89V, T128I
notes: also called N31618-14_; N31610-14_
For B2, the binding result in assay [1] is recorded as “no binding”. This molecule yielded a dissociation constant (Kd) in assay [3] of 180 pM.

B3: IL-2 mutant 1a-1 (ligand, not shown: small tags and cut ends)
chain: B1 chain with N30S, E68D, N71A, S75P, K76R, N90H, T128I
notes: also called N31610-01_
On to B3, for which the binding result in assay [1] is on record as “no binding”. In assay [3], binding was characterised by a dissociation constant (Kd) of 254 pM.

B4: IL-2 mutant WC9 (ligand, not shown: small tags and cut ends)
chain: B1 chain with S4P, T10A, Q11R, N88D, T128I, T133A
notes: also called N31610-18_
As for B4, the binding result in assay [1] is given as “no binding”. In assay [3], binding was put at a Kd of 1580 pM.

B5: IL-2 mutant WE3 (ligand, not shown: small tags and cut ends)
chain: B1 chain with N30S
notes: also called N31610-25_
Regarding B5, in assay [1], the binding result is “no binding”. Further, in assay [3], the Kd was 778 pM.

B6: IL-2 mutant 1b-8 (ligand, not shown: small tags and cut ends)
chain: B1 chain with K8R, Q13R, N26D, N30T, K35R, T37R, I92T, T128I
notes: also called N31618-08_
With B6, in assay [1], the binding result is on record as “no binding”. This molecule came in with a dissociation constant (Kd) in assay [3] of 409 pM.
